The results in this text go back to US20250250357A1 (NANJING ZAIMING PHARMACEUTICAL, published 2025).

Where two headings read alike, the source gives them in different places.

Assay [1] deals with T1, human MSLN-FL-his protein (human, UniProt Q13421 296-580).
T1 construct: made in HEK293E cells, purified on nickel column; also called hMSLN-FL-his; human MSLN full-length protein; not shown: His tag
Briefly: competitive ELISA; row F8-32.3. Note: test concentration or dose not given here.

For assay [2], the target named is T1, human MSLN-FL-his protein. The assay is described as follows: competitive ELISA; row F8-36.12. Note: test concentration or dose not given here.
In assay [3] the target is T1, human MSLN-FL-his protein. Briefly: SPR (Biacore), antibody captured on Protein A chip.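 Note: flow cell at 25 °C, antigen injected for 240 s at five concentrations from 200 nM downward, dissociation followed up to 600 s, double-referenced, fitted with Langmuir 1:1 model.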
The target in assay [4] is T1, human MSLN-FL-his protein. The assay is described as follows: competitive ELISA; row Tab021. Note: test concentration or dose not given here.
For assay [5], the target named is T2, human MSLN protein endogenously expressed on OVCAR3 tumor cells (human, UniProt Q13421 296-598).
T2 construct: whole, on cells; endogenous expression on a tumor cell line; also called human mesothelin
Briefly: FACS on OVCAR3 cells.

For assay [6], the target named is T1, human MSLN-FL-his protein. Briefly: competitive ELISA; row F8-29.1. Note: test concentration or dose not given here.
The target of assay [7] is T1, human MSLN-FL-his protein. The assay is described as follows: competitive ELISA; row F8-24.14. Note: test concentration or dose not given here.
For assay [8], the target named is T1, human MSLN-FL-his protein. The assay is described as follows: competitive ELISA; row F8-9.16. Note: test concentration or dose not given here.
For assay [9], the target named is T1, human MSLN-FL-his protein. The assay is described as follows: competitive ELISA; row F8-8.22. Note: test concentration or dose not given here.
For assay [10], the target named is T1, human MSLN-FL-his protein. Briefly: competitive ELISA; row F8-28.23. Note: test concentration or dose not given here.
Assay [11] deals with T1, human MSLN-FL-his protein. The assay is described as follows: competitive ELISA; row Tab142. Note: test concentration or dose not given here.
The target in assay [12] is T3, human MSLN-R3 protein expressed on HEK293T cells (HEK293T-hMSLN-R3) (human, UniProt Q13421 487-606).
T3 construct: C-terminal limit uncertain
T3 sequence (Q13421 495-614): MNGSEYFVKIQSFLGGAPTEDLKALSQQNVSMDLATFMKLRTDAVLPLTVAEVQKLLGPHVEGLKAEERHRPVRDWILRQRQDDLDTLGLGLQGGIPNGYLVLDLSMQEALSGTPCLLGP
The assay is described as follows: FACS on HEK293T-hMSLN-R3 cells.

Assay [13] concerns the target T1, human MSLN-FL-his protein. The assay is described as follows: competitive ELISA; row F8-33.12. Note: test concentration or dose not given here.
Assay [14] addresses T1, human MSLN-FL-his protein. The assay is described as follows: competitive ELISA; row F8-22.23. Note: test concentration or dose not given here.
The target of assay [15] is T4, monkey MSLN full-length protein (NCBI: XP_028696439.1) expressed on HEK293T-monkey MSLN cells (monkey).
T4 construct: Whole encoded precursor
T4 chain: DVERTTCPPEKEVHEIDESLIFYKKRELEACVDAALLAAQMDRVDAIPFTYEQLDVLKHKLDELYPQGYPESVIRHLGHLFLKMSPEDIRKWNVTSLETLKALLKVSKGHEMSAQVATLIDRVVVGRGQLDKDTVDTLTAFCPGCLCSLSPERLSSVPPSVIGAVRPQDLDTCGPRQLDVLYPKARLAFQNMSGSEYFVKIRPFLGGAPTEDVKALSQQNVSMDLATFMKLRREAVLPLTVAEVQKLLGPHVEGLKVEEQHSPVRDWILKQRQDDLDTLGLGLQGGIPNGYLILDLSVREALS
The assay is described as follows: FACS on HEK293T-monkey MSLN cells.

For assay [16], the target named is T5, human MSLN protein endogenously expressed on OVCAR3 tumor cells (human, UniProt Q13421 296-598).
T5 construct: whole, on cells; Endogenous target on OVCAR3 cells; kept apart from the recombinant full-length construct; also called mesothelin
Briefly: FACS on OVCAR3 cells.

In assay [17] the target is T6, human MSLN full-length protein (NCBI: AAH09272.1) expressed on HEK293T-hMSLN-B8 cells (human, UniProt Q13421 296-598).
T6 construct: Whole encoded precursor
T6 sequence (Q13421 other isoform, or with tags, fused parts or gaps limits assumed): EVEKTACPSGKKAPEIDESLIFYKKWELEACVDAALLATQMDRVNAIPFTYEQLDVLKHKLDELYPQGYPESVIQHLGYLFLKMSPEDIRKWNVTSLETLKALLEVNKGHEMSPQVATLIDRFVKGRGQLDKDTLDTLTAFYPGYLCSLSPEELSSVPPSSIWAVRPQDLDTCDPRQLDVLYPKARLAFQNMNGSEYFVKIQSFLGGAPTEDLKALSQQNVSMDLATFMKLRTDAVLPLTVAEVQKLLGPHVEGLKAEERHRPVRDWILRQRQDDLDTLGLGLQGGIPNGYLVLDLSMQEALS
Briefly: FACS on HEK293T-hMSLN-B8 cells.

Assay [18] has as its target T7, human MSLN-R3 protein (Met487-Ser606 of NCBI AAH09272.1) expressed on HEK293T-hMSLN-R3 cells (human, UniProt Q13421 487-606).
T7 construct: also called Region3
Briefly: FACS on HEK293T-hMSLN-R3 cells.

T1 sequence (Q13421 other isoform, or with tags, fused parts or gaps): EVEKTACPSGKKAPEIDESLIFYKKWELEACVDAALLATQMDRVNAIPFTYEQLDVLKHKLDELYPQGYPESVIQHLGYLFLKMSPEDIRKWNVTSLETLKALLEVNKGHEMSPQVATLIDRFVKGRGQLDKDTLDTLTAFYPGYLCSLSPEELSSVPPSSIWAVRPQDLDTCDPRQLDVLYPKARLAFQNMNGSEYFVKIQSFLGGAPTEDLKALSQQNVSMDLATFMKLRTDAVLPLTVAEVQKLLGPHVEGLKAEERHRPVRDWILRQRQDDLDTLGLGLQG
T7 sequence (Q13421 495-614): as the sequence (Q13421 495-614) above

B1: S009-F8-32.3 (antibody, human IgG1, kappa, V domains shown)
VH: QVQLKESGPGLVAPSQSLSITCTVSGFSLSSYAISWVRQPPGKGLEWLGVIWTGGGTNYNSALKSRLSISKDNSKSQVFLKMNSLQTDDTARFYCARNNYGRLDYAMDYWGQGTSVTVSS
VL: DVVMTQTPLSLPVSLGDQASISCRSSQSLVHGNGNTYLHWYLQKPGQSPKLLIYKVSNRFSGVPDRFSGSGSGTDFTLKISRVETEDLGVYFCSQSTHVPFTFGSGTKLEIKR
notes: human-murine chimeric antibody, human IgG1/kappa constant regions
Regarding B1, the competition rate in assay [1] was 79.3%; in [2], -164%; in assay [4], 10.9%; in assay [6], 65.9%; in assay [7], 95%; in assay [8], -113%. In addition, the competition rate in assay [9] stood at 94.4%; in assay [10], 102%; in assay [11], 40.6%; in assay [13] it was 56.5%; in assay [14], 96.6%. This molecule also came in with a Kd in assay [3] of 6.5 nM. Moreover, the koff in assay [3] amounted to 0.00331 s⁻¹. The molecule also came in with an on-rate (kon) in assay [3] of 510000 M⁻¹ s⁻¹. Besides, in [5], the EC50 was found to be 14.7 nM. Moreover, the “Maximum mean fluorescence intensity” value in [5] was 8270; in [12], 50. The binding result in assay [12] is reported as “no binding”.

B2: S009-F8-29.1 (antibody, human IgG1, kappa, V domains shown)
VH: QVQLQQSGAELARPGASVKMSCKASGYTFISYTMHWVKQRPGQGLEWIGYINPSSGYTKYNQKFKDKATLTADKSSSTAYMQLNSLTSEDSAVYYCARYYSNPDYYAMDYWGQGTSVTVSS
VL: QIVLTQSPAIMSASPGEKVTITCSASSSVSYMHWFQQKPGTSPKLWIYSTSNLASGVPARFSGSGSGTSYSLTISRMEAEDAATYYCQQRSSYPLTFGGGTKLELKR
notes: as for B1
For the molecule B2, the competition rate in assay [1] was 75.8%; in [2] it was -146%; in assay [4], 11.1%; in assay [6], 62.2%; in [7], 89.8%; in assay [8] it was -37.3%. The competition rate in [9] was 88.4%; in assay [10] it was 96%; in assay [11], 36.8%; in assay [13], 47.3%; in [14], 88.5%. This molecule also gave a Kd in [3] of 27.4 nM. The molecule also came in with a koff in [3] of 0.0199 s⁻¹. Also, the kon in [3] came to 728000 M⁻¹ s⁻¹. This molecule showed an EC50 in assay [5] of 33.4 nM. For the same molecule, the “Maximum mean fluorescence intensity” value in [5] is 5430; in assay [12], 69. For the same molecule, the binding result in [12] is recorded as “no binding”.

B3: S009-F1.2.12 (antibody, human IgG1, kappa, V domains shown)
VH: QVQLKQTGPGLVQPSQSLSITCTVSGFSLTNYAVHWVRQSPGKGLEWLGVIWSGGATDYNTVFISRLSISKDNSKSQVFFKVNSLQVDDTAIYYCARTGSGYAMDYWGQGTSVTVSS
VL: DIVLTQSPATLSVTPGDRVSLSCRTSHNVNTYLHWYQQKSHESPRLLIKYASQSISEIPSRFSGSGSGTNFTLSINSVETEDFGMYFCHQTNRWPLTFGAGTKLELKR
notes: as for B1
In the case of B3, the EC50 in [15] was 1.39 nM; in assay [16], 1.87 nM; in [17] it was approximately 0.86 nM. Also, the “Maximum mean fluorescence intensity” value turned out to be 29200 in assay [15], 9620 in [16], 87200 in assay [17] and 239 in [18]. The binding result in assay [18] was “no binding”.

B4: S009-F8-8.22 (antibody, human IgG1, kappa, V domains shown)
VH: EVQLQQSGPELVKPGASVKMSCKASGYTFTDYIIHWVKQSHGKSLEWIAYIFPNNGGTGYNQKFRGKATLTVNKSSSTAYMELRSLTSEDSAVYYCARWRLRQYFDVWGTGTTVTVSS
VL: DIVMTQSQKFMSTIVGDRVSITCKASQNVGTAVAWYQQKPGQSPKLLIYSASNRYTGVPDRFTGSGSGTDFTLTISNMQSEDLADYFCQQYSSYPLTFGGGTKLEIKR
notes: as for B1
Take B4: the competition rate is 77.7% in assay [1]; -138% in assay [2]; 12.6% in assay [4]; 59.2% in [6]; 91.1% in [7]; -52.1% in assay [8]. Besides, the competition rate in assay [9] is 92.2%; in assay [10], 97.4%; in assay [11] it was 33.8%; in assay [13], 53.5%; in [14], 96.1%. This molecule returned a Kd in assay [3] of 12.8 nM. In addition, the koff in assay [3] amounted to 0.00937 s⁻¹. In [3], this molecule came in with a kon of 732000 M⁻¹ s⁻¹. In [5], this molecule returned an EC50 of 9.9 nM. Moreover, the “Maximum mean fluorescence intensity” value in assay [5] is 4270; in assay [12], 122. Besides, the binding result in assay [12] is given as “no binding”.

B5: S009-F8-24.14 (antibody, human IgG1, kappa, V domains shown)
VH: EFQLQQSGPELVKPGASVKISCKASGYSFTDYNMNWVKLSNGKSLEWIGVIIPNYGTSSYNQKFKGKATLTVDQSSSTAYMQLNSLTSEDSAVYYCARWDNYYGSSLDYWGQGTTLTVSS
VL: DIVMTQSQKFMSTTVGDRVSITCKASQNVGTAVAWYQQKPGQSPKLLIYSASNRYTGVPDRFTGSGSGTDFILTISNMQSEDLADYFCQQYSSYPLTFGAGTKLELKR
notes: as for B1
On to B5, for which the competition rate in [1] was 57.6%; in assay [2], -142%; in assay [4], 5.3%; in assay [6] it was 43.7%; in assay [7] it was 77%; in [8] it was -65.5%. For the same molecule, the competition rate in assay [9] was found to be 74.5%; in [10], 95%; in assay [11] it was 22.9%; in assay [13], 27.8%; in [14] it was 80.3%. In assay [3], this molecule registered a Kd of 9.13 nM. The koff in assay [3] is 0.00501 s⁻¹. Besides, in [3], the kon worked out at 549000 M⁻¹ s⁻¹. The molecule further showed an EC50 in assay [5] of 11.5 nM. Further, the entries for the “Maximum mean fluorescence intensity” value in assay [5] and in assay [12] were 4700 and 82, respectively. Also, the binding result in [12] is “no binding”.

B6: S009-F8-36.12 (antibody, human IgG1, kappa, V domains shown)
VH: EVQLQQSGPELVKPGASVKISCKASGYTFTDYYMNWVKQSHGKSLEWIGDINPNNGGTSYNQKFKGKATLTVDKSSSTAYMELRSLTSEDSAVYYCASWGYGSSSRGYFDYWGQGTTLTVSS
VL: QIVLSQSPAILSASPGEKVTMTCRASSSVSYMHWYQQKPGSSPKPWIYATSNLASGVPARFSGSGSGTSYSLTISRVEAEDAATYYCQQWSSNPWTFGGGTKLEIKR
notes: as for B1
Regarding B6, the competition rate in assay [1] was 9.8%; in assay [2] it was 61.5%; in assay [4], 6.4%; in assay [6] it was 9.4%; in [7] it was 10.3%; in [8], -47.7%. Moreover, the competition rate in assay [9] is 5.9%; in assay [10], -10.7%; in assay [11], 17.4%; in assay [13] it was 8.3%; in assay [14] it was -3.1%. The Kd in assay [3] amounted to 103 nM. Also, the koff in assay [3] came to 0.0122 s⁻¹. In assay [3], this molecule showed a kon of 118000 M⁻¹ s⁻¹. For the same molecule, the EC50 in assay [5] worked out at 15.2 nM; in assay [12] it was 11 nM. In addition, the “Maximum mean fluorescence intensity” value in assay [5] worked out at 2510; in assay [12], 7970.
